Source: a protein production outcome set (Wang et al. 2014)

Assay: label from the status in PepcDB records

Sequence	protein production
MAKNQWNELLLEQVRQLPMASSKEHVQLRLNLLIVEASKQKKTIPTEFELIFQAYQLSRSGKLIDSISVFFDAINFSQQNQQEFLICFCHYNIGTLYGMLGNYFYAQKFLAKAEKMQQFCDGYITGIIKNNIGDIFRQIGNFNEALIYLTQAAELLSQHGPKTAAALSYFNIAEIKAKQFLFTEANELLENLYQDIKNEPRYLGFYYKIKAEIASHSGEFEQADKLHLLSIENMQISEHDYYYAEMILEYCHFLTSCLQYKKLDQFIALGLAVAKKIESDKLIDGFNDIILLRIKDIDDINIREKHYQTLTSSLLNSRRELLKREGDYLQQLYRLNVAKLNLSTMKSLSDNLAVINKVGHYINTSSDIKNALPQIQQDLASLFQTDTLALGFYNSEQDQITIHYLDNNLPAQTPYITDCKSEATYMSYCIKSNSAFYFNHMNSEQKVAMLGDRCDSKVQFKSAMFSPITINGEVKGVFTIQARESYQYQTFHFELFSQLISYISIALENQYNRQQLLHLSQTDHLTQIWNRKSLEAHFNQLKQQQNQEYTGIMIDIDHYKEYNDTYGHIAGDEVLIQVSRLIKQGFHSLETQVYRYGGDEFFVLIPSIKPEKIRQKLDKLLIEVKKLLIPHKASTCSCYLSISVGIGYNKDPENQLSLNSLVNTADRALYQAKENGRNCYFELAHIKETMY	failed
MKADDSRFFSFLKDRIGLDVTSVGEAIIERALRQRAKAANCADSDDYWHLLISSPQEQQALIEAVIVPETWFFRYPESFVTLGMLARERIASLAGVRPLRILSLPCSTGEEPYSIAMALFDAGVDARQFKVDAVDISPVSIAKAVHGIYGKNSFRGSDLSYRERFFSAITDGFEVADEIRACVNFQPGNLLDPKLASQVPYDIVFCRNLVIYFDRPTQQRVFQVLKQLTREDGLLFIGPAEGNLLAGIGMRSIGIAQSFAFRHAPAEAAAPAQVQAAAPIAPRPVVEAPARSPAPTPRPAARTSAAFAPLAKPAAAAGNSEVSALLDTIAGLANEGKSAEARAACERYLQQHEPVAQVFYWLGLLSEVEGAVVQAQGFYRKALYLQPQHRESLAQLAALLAAQGDSAGARRLQDRAARGANKQGNH	failed
AIDHRIQYLAYREIKAAVETNKAKAGSVVVLDAHTGELLALANYPSFNPNNRSGVTPEMMRNRGVIDLFEPGSTMKPLSISLALEHGKANLNTVLDTHSYMIGPATIRDVSPQASLGILGIIQKSSNVGTSKLALLNSPEEFWKHYDALGFGRAPETGFPGEASGRLRDWHKWRPIEQATMSFGYGVSVSLIQMARAYTIFANDGVMLPVALYKTANPMPGKRVLSEKTAHEMRDLLIANSQPGGGAVGGRIIGYSIGGKSGTARKLEGRAYVANKHRALFMGFAPGHSPKVIVAVMIDEPSAGKYYGGAVSAPVFSQVAGGALRVLNIAPD	failed
MSSRKIGLNLVVIVALAALFTGIWALYNRPVSVPDWPERISGFSFSPFRLNQNPQSGRYPSAEQMRTDLELVARHTHSIRTYSVQGALGDIPALAEAFGLRVSLGIWLGPDLASNEAEIARAIRIANESPSVVRVIVGNEALFRREVTAEQLIAYLDRVRAAVKVPVTTAEQWHVYREHPELAQHVDLIAAHVLPYWEATPVADAVDFVLERARELKAAFPRKPLLLAEVGWPSNGRMRGSAEATPADQAIYLRRLTNALNGEGYSYFVIEAFDQPWKVSAEGSVGAYWGVYNADRKAKFNFTGPVVPIPKWRALAIASAVLAVLAFTLLLIDSSSLRQRGRTFLAVVSFACASVLVWIAYDYSQQYSTWFSLTVGALLGVGALGVVIVLFTEAHELAEAVWTRKRRRPFLPITAARAYRPKVSIHVPCYNEPPELLKQTLDALARLDYPDYEVLVIDNNTRDPAVWQPVEAHCARLGERFRFFHVAPLEGFKAGALNFALGHVAADVEVVAVIDADYCVDPDWLRHMVPHFGDPRIAVVQSPQDYRDQHESAFKRLCYAEYKGFFHIGMVTRNDRDAIIEHGTMTMIRRSVLDELRWPEWCITEDAELGLRVFEKGLSAAYFERSYGKGVMPDTFIDFKKQRFRWAYGAIQIMKRHTDALLRGRGPDGSRLTRGQRYHFVAGWLPWIADGLNIFFTLGALLWSAAMIIVPKRVDPPLLIFAILPLALFVFKVGKILFLYRRTVGVDLRDSFFAALAGLSLSHTIAKAVLYGFVTRGIPFFRTPKMRSSHGLLVALAEAREEVFVMLLLWGAAAGIVAVQGVPSRDLLIWVAMLLVQSLPYLAALVMALLSSLPKPREELAGGAEQIGG	failed
MRILFVGPPLYGLLYPVLSLAQAFRVNGHEVLIASGGKFAQKAAEAGLVVFDAAPGFDSEAGYRRQEALRKENNIGTKMGNFSFFSEEMTDPLVAFAGQWRPDLIVYPPLGVVGPLIAAKYDIPVVMQTVGFGHTPWHIKGVTKSLSNAYRRHGVSAPPRDLAWIDVTPPSMSILQNDGEPVISMQYVPYNGGAVWEEWWERTPDRKRLLVSLGTVKPMVDGLDLISWVMDSAGEVDAEIILHLPANARSDLRSLPPNVRLVDWLPMGVFLNGADGFIHHGGAGNTLTALHAGIPQIVFGQGADRPVNARAVVERGCGIIPGKSGLTSSMINTFLGNRALREASQEVAAEMAAQPCPTEVAKKLIAMLQHGLEHHHHHH	failed
MKIVILGAGRVGSTVAESLASESNDITVVDLVRNRLSLLQERLDLRTVVGSASHPDIMIQAGMEDADMILALTGSDETNLVACKLAASMFNTPTRIARIRTVDYLDHPDIFSRENFCVDFAICPERILTKYIEKLIEFPGALQVLDFASGKVSLVAVKAIRGGPLIGRQLKELRRHVPNLDTRVAAIFRHNHPIIPEGSTIVEEGDEVFFIASSSDIRAVMGELRRMDKSVRRVMIAGGGRIGRRLAEVLQQSHQVRIIERDIKVCESLTQNLHNTLILHGNVTDEELLESENISEMDIFCALTDDEENNIMAALMAKRMGARKVIALINRSMYVDLMQDSGIDIAISPAQVTIGSLLAYVRQGDVAVVHSLRRGAAEALELVAHGDTRSSRVVGRKIEEIKLPRSTTIGAIVRGLPPGDVYRNLSEQEEDSILAQWKQAQVIIAHHDTVIEQNDHVILFVVNKKMVRQVEKLFQVNVGFL	failed
MAGALITASAACAEDAPDFRLDLDTGGHTARIARLAFTPDGEDIVSASDDKTIRIWDWQSGVTLRTIRGYLGNGSDGKIFAVSVSPDGKTIAAGGYFGAGLGDKPPYGDIRLFDFATGKMKAVLRAADYATYDLAFSPDGKTLAAGGGDGMVYLWRLDDKSATGWTLDKKLDADSWHIDKLAFAAAGTRLAATTTDNGIRLWDVAKGEEIALPDEAEPLRDVSVLALAISQDGSLFATGSKDGQVQLWRAADGTLVHAMPKQDFLIGSLTFAKGSRLVASCGYRCADKHRSIVWNTDSGEKLLDYSGHDGTVYASAANADGSLVATAGGTRNAIQVWDPATGERKALLQGVGEPVTAIGIDAANGIIAWGNTNPCPERVACPEQLGALDKRLELPTTERFFDDPQPLTEPGSFARAAQSDGEWSLHATKGGKDALENAVLEIANGGKVVRSIENDATNGFAHSAFTLIDNGLGLITGGNDGTLLEYKAATARVSGEFTGHTGEINAMAASEKAGLLVTGSADQTLRLWNLKTHELIVSMFFAGPQWIAWMPQGYYYSSDEGDKLIGWHVNQGRDHEGRFIRAGQLKKYLWSPEMVRRAIILRSAKQAVKEMRPGVDNELQKLLQRKPPEFGVRLADDQSKVRDGYVAVEITGAKEAGTDVAGFSILSNSRNVGDIATRSAEGDKTTVEVPVENGQNTIRITGTNEYGYLTERSVTALARKTEKAEAKGKLYVAVIGVDKYPFLTDACSGHACDLRYPVDDATEFLEVVAQKSAPLFSSMETLVLVNREALDESPDKAKQTYTVASADNIMEPDSHTIDDQLADFLDRPGEHDTTIVFVAGHGINIDEDYYFIPTDGRKQDADRWKRSSLVDWGDIQKSVERAKGMRFMLLDTCHAANAFNPRLEKDAQDARIVVFSATAANNTAAELPELGHGVFTYSILEGLRGKARTSDGGITLFGLADFISHEVVRLTASKQKPFYYVGGVENIVLAEP	failed
MRQFQRLANDGLKSCPPKSGCPMHILFIGYGKTSQRIAKHLFAQGHQITAVSRHPKPQDFVTHLTQDIHQLNLDQCSPIDWVYVLLAPENSDAQSYKHTYLDSVQPIARALATHPVKRVVVVSSTRVYGQQQAGEIVNDQTIAKPVDQQGAYLLEMEEAWQNAFAEHCTIIRPSGIYGNSISRMVKLAKNTTEYPVIHYSNRIHIEDLARFLAFMTQMPCCQPSYLISDGHPYPLHEIILWFQKQLALPQLVLQSDSVTGKRIVPVNFLTTGFELQAEDCFEIYGNLLRSVDT	failed
MPEYSSVTGLEGVKFAPLKKENGFYVATKIIDYPYAINAKVNTETSTEKQYADNKLVDMAVTTGSTKLELEMRDLPMEILEELFGIEETDGIYMFKKNVIAPWVAMSFYGPKANGKNRHVGLVKGRFSLPDDEWKTKEEKTDFQTVKLSAEFMEREQDNAYKVLADEDAPNFNLDKFYEKVFGNAYKNPLEHHHHHH	not failed
MSKTVVLPQSDSPSVVASVSFWQAFRFWLKLGFISFGGPAGQIAMMHQELVDNRRWISEGRFLHALNFCMVLPGPEAQQLATYIGWLMHKTWGGVIAGVLFILPSLVLLIALAWIYLVWGDVAVVAGIFYGIKPAVAAIVLQAAHRIGSRALKNGAYWAIAAAAFVAIFALNVPFPLIVLAAALVGFIGGRLAPTIFGRADAHHAQSHPGGAAIIDDTTPIPAHAIFSWRRTSQVLIAGMLLWLVPMAALTLMLGWAHPLTQMSWFFTKAALMTFGGAYAVLPYVYQGAVTHYGWLTAGQMMDGLALGESTPGPLIMVVTFVGFVGGYTKAVLGVDDVLLGGIAAACLVTWFTFLPSFIFILAGGPFIETTHNKVGFTAPLTAITAAVVGVILNLALFFIWHSVWGPSGFDPWSAAIALGAAGLLFRYKWKLTWVLATAAAVGLIVHMAGLSGAG	failed
MKTIIRQPQLYRFLKYCNESNLDKTVLDCGAGGDLPPLSIFVEDGYKTYGIEISDLQLKKAENFSRENNFKLNISKGDIRKLPFKDESMSFVYSYGTIFHMRKNDVKEAIDEIKRVLKPGGLACINFLTTKDERYNKGEKIGEGEFLQLERGEKVIHSYVSLEEADKYFKDMKVLFKEDRVVERINDGLKIKQGYVDYIAEKFSKSIL	not failed
MGRYKDETPAVRVYTVCDESRYMIVRNVPALGCGDDLMRLFMTYGEVEEFAKRKLDESSFLGNRLQISYAPEYENVNDTKDKLESRRKEVLARLNPQKEKSTSQVTKLAGPALTQTDNVSSQRREMEYQFHRGNAPVTRVSSDQEYFASSSMNQTVKTVREKLNKTREENISSLSHCKQIEESGNQKRLQPSSQTQPEESGNQKRLQPSSQIQPDLKRTRVDNRRRI	failed
YRALYPFEARNHDEMSFNSGDIIQVDEKTVGEPGWLYGSFQGNFGWFPCNYVEKMPSSENEKAVSPKKALLPPTVSLSAT	not failed
MQKRAYLLIAVSGSLWGTIGIFVRELYGLGFSTLQIVTMRVFSAAVIMLLYLLFTKPELLKIRFRDSLYFVGTGILSIVFFNLCYFITIRETSIAIAVTLLYTAPAFVAILSRIIFRESLDAKKLFSLGLTLTGCAFVTGYLPELGNSPSITLPWLLTGLGAGFGYALYSIFGKVALKKYDTVTITAYTFFFASLALLPLVSFETSGEAFSTGSFWTYLIGLGFFPTVLAYLLYTKGLEEVESSRAAIVATVEPVVATFAGFFFFREIVSGWQLAGILFVLAGVVLIQERK	failed
